What all share (assay): filter
Series [1] addresses Complement C5 full length (Homo sapiens) (UniProt P01031+P01031). The following applies: dRmY: deoxy A,G, 2'-OMe C,U, plateau about 10%.
For the next series, the target named is IL-23 (Homo sapiens) (UniProt Q9NPF7+P29460). Conditions: approximately 500 nM or higher, DPBS, 0.1 mg/ml tRNA.
In a further series the target is T1, IFN-gamma (Homo sapiens) (UniProt P01579).
T1 sequence: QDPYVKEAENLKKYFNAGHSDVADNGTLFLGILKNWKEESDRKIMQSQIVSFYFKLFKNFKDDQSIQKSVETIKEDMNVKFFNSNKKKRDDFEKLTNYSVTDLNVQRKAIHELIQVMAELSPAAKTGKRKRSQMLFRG
The following applies: dRmY: deoxy A,G, 2'-OMe C,U.

Another series concerns the target PDGF-BB (Homo sapiens) (UniProt P01127). Conditions: 2'-OMe A,C,U; 2'-OH G; approximately 950 nM or higher; naive pool also binds PDGF-BB.
Another series deals with IgE (Homo sapiens). The following applies: 2'-OMe C,U; 2'-OH A,G; approximately 500 nM or higher.
Where [2] appears, read: high salt selection (250 mM NaCl).

10 sequences from patent publication US20050037394 can be followed below.

pKd: −log10 of the molar value. Bounds are passed on as bounds.

Chain of Complement C5 full length (Homo sapiens) (P01031 19-673, chain 1 of 2): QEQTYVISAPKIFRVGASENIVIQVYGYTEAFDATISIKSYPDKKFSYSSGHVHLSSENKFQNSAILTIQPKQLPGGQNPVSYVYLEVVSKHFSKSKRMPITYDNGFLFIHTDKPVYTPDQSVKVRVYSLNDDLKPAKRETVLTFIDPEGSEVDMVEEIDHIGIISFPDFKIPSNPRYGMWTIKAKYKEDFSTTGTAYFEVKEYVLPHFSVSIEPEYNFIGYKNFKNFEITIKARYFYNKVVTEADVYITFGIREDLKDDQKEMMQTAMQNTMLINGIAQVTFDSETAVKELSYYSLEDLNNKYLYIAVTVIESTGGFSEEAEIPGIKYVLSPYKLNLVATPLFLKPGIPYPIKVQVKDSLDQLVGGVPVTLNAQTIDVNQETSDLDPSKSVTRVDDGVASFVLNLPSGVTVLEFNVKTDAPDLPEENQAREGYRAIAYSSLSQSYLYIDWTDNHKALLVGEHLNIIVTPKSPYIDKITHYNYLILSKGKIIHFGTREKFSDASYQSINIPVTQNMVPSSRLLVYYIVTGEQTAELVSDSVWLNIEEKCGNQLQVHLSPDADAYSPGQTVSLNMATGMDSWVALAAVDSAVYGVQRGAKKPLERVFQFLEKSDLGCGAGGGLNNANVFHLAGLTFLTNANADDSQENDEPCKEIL
Chain of Complement C5 full length (Homo sapiens) (P01031 678-1676, chain 2 of 2): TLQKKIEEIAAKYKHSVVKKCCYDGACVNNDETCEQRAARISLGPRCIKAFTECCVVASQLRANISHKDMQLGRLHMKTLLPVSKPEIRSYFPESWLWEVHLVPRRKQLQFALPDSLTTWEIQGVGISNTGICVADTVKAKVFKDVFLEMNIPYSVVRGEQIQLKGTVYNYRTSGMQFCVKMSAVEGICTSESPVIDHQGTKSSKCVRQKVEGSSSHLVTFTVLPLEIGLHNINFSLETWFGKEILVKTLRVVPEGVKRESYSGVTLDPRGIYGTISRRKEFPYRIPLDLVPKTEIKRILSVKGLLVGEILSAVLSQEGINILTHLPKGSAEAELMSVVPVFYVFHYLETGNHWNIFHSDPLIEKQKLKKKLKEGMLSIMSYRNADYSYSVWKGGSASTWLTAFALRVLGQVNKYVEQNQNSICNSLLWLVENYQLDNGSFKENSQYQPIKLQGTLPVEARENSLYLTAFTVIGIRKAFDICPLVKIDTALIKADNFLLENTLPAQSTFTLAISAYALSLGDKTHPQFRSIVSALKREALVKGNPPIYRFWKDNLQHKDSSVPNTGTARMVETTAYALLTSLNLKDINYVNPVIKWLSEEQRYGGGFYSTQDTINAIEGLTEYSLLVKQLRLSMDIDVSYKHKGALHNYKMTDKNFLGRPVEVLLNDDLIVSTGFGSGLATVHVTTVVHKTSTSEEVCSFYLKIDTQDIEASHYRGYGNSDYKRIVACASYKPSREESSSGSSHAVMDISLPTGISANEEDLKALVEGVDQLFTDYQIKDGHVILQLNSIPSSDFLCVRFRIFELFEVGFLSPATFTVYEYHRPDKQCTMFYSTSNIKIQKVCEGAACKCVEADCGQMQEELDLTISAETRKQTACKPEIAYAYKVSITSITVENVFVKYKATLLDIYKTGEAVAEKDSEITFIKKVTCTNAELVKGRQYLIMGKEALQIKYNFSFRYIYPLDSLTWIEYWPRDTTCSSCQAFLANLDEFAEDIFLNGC
Chain of IL-23 (Homo sapiens) (Q9NPF7 20-189, chain 1 of 2): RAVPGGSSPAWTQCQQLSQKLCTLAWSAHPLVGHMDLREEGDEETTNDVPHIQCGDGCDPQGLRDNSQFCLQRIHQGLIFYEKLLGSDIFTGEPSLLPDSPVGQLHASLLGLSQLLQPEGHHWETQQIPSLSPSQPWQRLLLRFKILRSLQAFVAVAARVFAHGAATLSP
Chain of IL-23 (Homo sapiens) (P29460 23-328, chain 2 of 2): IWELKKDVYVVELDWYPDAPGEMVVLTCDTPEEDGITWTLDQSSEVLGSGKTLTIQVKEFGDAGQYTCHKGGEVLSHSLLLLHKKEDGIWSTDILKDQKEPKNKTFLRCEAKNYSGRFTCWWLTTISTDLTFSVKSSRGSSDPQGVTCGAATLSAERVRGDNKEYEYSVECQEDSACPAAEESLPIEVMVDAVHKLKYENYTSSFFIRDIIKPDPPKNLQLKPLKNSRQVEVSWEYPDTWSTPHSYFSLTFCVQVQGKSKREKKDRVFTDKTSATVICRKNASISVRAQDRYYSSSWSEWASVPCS
Chain of PDGF-BB (Homo sapiens) (P01127 82-190): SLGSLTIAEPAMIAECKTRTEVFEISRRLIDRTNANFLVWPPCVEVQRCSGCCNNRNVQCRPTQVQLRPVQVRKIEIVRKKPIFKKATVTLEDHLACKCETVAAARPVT

In turn, “GGGAGAGGAGAGAACGUUCUACNNNNNNNNNNNNNNNNNNNNNNNNNNNNNNGGUCGAUCGAUCGAUCAUCGAUG [C5 full-length selection round 10 dRmY pool]” had a pKd in series [1] (1x DPBS, tRNA and salmon sperm DNA competitor) of 6.94.
Turning to “GGGNGNGGNGNGNNCGUUCUNCNNNNNNNNNNNNNNNNNNNNNNNNNNNNNNCGCUGUCGNUCGNUCGNUCGNUG [IL-23 rGmH round 10 pool]”, the pKd with IL-23 (Homo sapiens) (2'-OMe A,C,U, 2'-OH G) is less than 6.30.
“GGGAGAGGAGAGAACGUUCUACNNNNNNNNNNNNNNNNNNNNNNNNNNNNNNGGUCGAUCGAUCGAUCAUCGAUG [IFN-gamma round 10 dRmY pool, normal stringency]” gave a pKd with IFN-gamma (Homo sapiens) (1x DPBS, tRNA, ssDNA, BSA) of 6.22.
“GGGNGNGGNGNGNNCGUUCUNCNNNNNNNNNNNNNNNNNNNNNNNNNNNNNNCGCUGUCGNUCGNUCGNUCGNUG [PDGF-BB rGmH round 10 pool]” had a pKd in the series with PDGF-BB (Homo sapiens) of less than 6.02.
The sequence “GGGAGAGGAGAGAACGUUCUACNNNNNNNNNNNNNNNNNNNNNNNNNNNNNNCGCUGUCGAUCGAUCGAUCGAUG [IgE rRmY round 6 pool]” gave a pKd with IgE (Homo sapiens) of less than 6.30.
On to “GGGAGAGGAGAGAACGUUCUACNNNNNNNNNNNNNNNNNNNNNNNNNNNNNNGGUCGAUCGAUCGAUCAUCGAUG [C5 partially trypsinized selection round 10 dRmY pool]”, for which the pKd in series [1] (selection on partially trypsinized C5) was 6.82.
As for “GGGAGAGGAGAGAACGUUCUACNNNNNNNNNNNNNNNNNNNNNNNNNNNNNNGGUCGAUCGAUCGAUCAUCGAUG [IFN-gamma round 12 dRmY pool, high salt]”, the pKd with IFN-gamma (Homo sapiens) (setting [2]) is 6.23.
“GGGAGAGGAGAGAACGUUCUACNNNNNNNNNNNNNNNNNNNNNNNNNNNNNNGGUCGAUCGAUCGAUCAUCGAUG [IFN-gamma round 12 dRmY pool, normal stringency]”: the negative logarithm of the Kd (pKd) with IFN-gamma (Homo sapiens) (1x DPBS, tRNA, ssDNA, BSA) was 6.35.
As to “GGGAGAGGAGAGAACGUUCUACNNNNNNNNNNNNNNNNNNNNNNNNNNNNNNCGCUGUCGAUCGAUCGAUCGAUG [IL-23 rRmY round 9 pool]”, in the series with IL-23 (Homo sapiens) (2'-OMe C,U, 2'-OH A,G), the negative logarithm of the Kd (pKd) was less than 6.30.
On to “GGGAGAGGAGAGAACGUUCUACNNNNNNNNNNNNNNNNNNNNNNNNNNNNNNGGUCGAUCGAUCGAUCAUCGAUG [IFN-gamma round 10 dRmY pool, high salt]”, for which the pKd with IFN-gamma (Homo sapiens) (setting [2]) was 6.17.

As usually defined, the pKd is the Kd on a negative log10 scale, so that one unit is a factor of ten.
